Test results from patent US20220401523A1.

Columns and labels:
[1] = biological target: human glucagon-like peptide-1 (GLP-1) receptor (human) (UniProt P43220); test: cell-based or functional assay
[2] = biological target: human FGFR1c (FGF receptor 1c isoform) together with human beta-Klotho (KLB) (human), P11362; test: cell-based or functional assay
human FGFR1c (FGF receptor 1c isoform) together with human beta-Klotho (KLB) (human), P11362, sequence (P11362 22-822, chain 1 of 2): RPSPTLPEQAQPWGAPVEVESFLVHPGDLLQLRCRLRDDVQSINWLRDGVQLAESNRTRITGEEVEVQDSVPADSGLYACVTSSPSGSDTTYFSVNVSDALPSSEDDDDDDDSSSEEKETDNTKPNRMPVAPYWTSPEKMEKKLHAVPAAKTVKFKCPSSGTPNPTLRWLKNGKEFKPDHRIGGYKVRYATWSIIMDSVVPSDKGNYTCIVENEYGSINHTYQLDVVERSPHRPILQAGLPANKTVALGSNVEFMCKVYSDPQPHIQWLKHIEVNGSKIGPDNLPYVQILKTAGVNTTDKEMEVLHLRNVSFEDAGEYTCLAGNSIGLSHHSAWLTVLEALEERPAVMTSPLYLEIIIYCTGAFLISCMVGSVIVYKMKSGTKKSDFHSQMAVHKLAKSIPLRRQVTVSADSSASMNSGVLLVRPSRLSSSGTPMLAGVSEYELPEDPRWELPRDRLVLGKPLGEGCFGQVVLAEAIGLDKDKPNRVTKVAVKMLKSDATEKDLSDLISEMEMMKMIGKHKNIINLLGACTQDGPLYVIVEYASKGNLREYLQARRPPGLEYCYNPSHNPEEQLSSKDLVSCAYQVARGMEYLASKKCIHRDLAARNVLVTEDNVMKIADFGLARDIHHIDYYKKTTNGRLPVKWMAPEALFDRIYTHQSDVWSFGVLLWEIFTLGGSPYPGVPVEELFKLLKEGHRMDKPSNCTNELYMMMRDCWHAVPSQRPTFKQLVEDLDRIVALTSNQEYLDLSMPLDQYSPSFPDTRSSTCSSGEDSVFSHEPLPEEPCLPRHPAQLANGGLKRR
human FGFR1c (FGF receptor 1c isoform) together with human beta-Klotho (KLB) (human), P11362, sequence (Q86Z14 whole entry, chain 2 of 2, further chain, canonical isoform): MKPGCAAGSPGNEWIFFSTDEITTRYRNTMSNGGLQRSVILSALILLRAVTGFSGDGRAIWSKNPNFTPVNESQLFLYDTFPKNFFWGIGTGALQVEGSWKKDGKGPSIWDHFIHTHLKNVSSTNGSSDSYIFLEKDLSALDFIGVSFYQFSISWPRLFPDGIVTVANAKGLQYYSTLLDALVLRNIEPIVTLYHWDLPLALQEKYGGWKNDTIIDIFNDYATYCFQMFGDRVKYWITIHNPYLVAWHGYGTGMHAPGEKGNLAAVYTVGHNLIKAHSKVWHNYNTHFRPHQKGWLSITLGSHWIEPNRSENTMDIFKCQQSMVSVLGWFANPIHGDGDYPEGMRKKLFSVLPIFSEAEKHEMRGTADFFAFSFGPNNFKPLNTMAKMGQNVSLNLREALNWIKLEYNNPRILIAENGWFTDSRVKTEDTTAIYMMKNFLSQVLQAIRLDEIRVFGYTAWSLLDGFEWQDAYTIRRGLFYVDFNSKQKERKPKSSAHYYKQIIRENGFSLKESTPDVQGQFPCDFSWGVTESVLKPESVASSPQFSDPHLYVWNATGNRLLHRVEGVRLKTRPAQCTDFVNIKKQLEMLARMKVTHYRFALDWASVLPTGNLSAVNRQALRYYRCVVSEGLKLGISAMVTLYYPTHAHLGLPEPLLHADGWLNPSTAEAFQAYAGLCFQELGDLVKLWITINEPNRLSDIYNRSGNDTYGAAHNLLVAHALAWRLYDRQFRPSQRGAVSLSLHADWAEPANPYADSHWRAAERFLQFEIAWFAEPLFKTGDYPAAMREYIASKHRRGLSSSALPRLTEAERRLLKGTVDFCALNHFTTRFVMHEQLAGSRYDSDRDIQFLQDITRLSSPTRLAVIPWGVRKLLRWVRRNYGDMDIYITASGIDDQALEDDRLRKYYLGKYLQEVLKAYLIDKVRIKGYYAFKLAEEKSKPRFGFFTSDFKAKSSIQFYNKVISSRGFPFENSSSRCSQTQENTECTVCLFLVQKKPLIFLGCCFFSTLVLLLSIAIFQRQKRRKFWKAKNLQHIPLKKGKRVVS

UniProt P43220, sequence (P43220 24-463): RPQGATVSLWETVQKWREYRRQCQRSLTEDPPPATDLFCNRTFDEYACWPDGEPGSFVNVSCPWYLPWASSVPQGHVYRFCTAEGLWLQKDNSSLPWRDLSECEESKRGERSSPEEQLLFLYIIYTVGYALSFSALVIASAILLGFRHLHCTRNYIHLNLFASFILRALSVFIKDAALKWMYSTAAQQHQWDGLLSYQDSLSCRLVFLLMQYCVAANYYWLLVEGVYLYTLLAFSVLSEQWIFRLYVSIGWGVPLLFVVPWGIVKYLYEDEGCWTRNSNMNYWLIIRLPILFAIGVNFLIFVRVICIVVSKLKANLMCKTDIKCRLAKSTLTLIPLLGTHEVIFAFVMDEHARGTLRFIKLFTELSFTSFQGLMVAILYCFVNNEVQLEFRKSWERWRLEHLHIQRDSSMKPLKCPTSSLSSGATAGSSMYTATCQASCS

Row | pERK ICW EC50 (downstream activation of the MAP kinase ERK1/2, In-Cell Western) [2] [nmol/L] | pFGFR ICW EC50 (FGF21 receptor autophosphorylation, In-Cell Western) [2] [nmol/L] | Molecule | EC50 of cAMP response (HTRF) [1] [pM] | Ratio GLP-1R agonistic activity: native GLP-1(7-36)/tested GLP-1R agonist [1] [fold]
1 |  |  | GLP1(7-36) A8G, V16L, S18K, Y19Q, G22E, Q23E, A25V, K26Q, E27L, A30E, V33E, K34A, G35T, R36G, insPSS (Fc fusion) | 134 | 174
2 |  |  | GLP1(7-36) A8G, V16L, S18I, Y19Q, E21D, G22E, Q23E, A25V, K26R, E27L, A30E, V33E, K34A, G35T, R36G, (Fc fusion) | 675 | 877
3 |  |  | GLP1(7-36) A8G, V16L, S18K, Y19Q, E21D, G22E, Q23E, A25V, K26Q, E27L, A30E, V33L, K34A, G35T, R36G, (Fc fusion) | 173 | 225
4 |  |  | GLP1(7-36) A8G, V16L, S18I, Y19Q, E21D, G22E, Q23E, A25V, K26R, E27L, A30E, V33L, K34A, G35T, R36G, (Fc fusion) | 60.5 | 78.6
5 | 0.18 | 4.8 | mature human wild-type FGF21, FGF21(His29-Ser209), Q9NSA1 29-209 (ligand) HPIPDSSPLLQFGGQVRQRYLYTDDAQQTEAHLEIREDGTVGGAADQSPESLLQLKALKPGVIQILGVKTSRFLCQRPDGALYGSLHFDPEACSFRELLLEDGYNVYQSEAHGLPLHLPGNKSPHRDPAPRGPARFLPLPGLPPAPPEPPGILAPQPPDVGSSDPLSMVGPSQGRSPSYAS |  | 
